# Laboratory results as given in patent US20240247080A1, “GLP1/GIP/NPY2 RECEPTOR TRIPLE AGONISTS” (Boehringer Ingelheim International GmbH, priority 2022, published 2024).
# Where a chain is given by its changes, count along the chain named. Starred links: 1 amine or outer side, 2 acyl side, 3 side chain; linkers in the order of their positions; H or OH if unused. Non-standard residues stand in square brackets, D forms with d. Groups on a side chain read outwards from the residue. No end group written: not given here. *: point of attachment. C20 diacid = O=C(O)CCCCCCCCCCCCCCCCCCC(=O)*; C18 diacid = O=C(O)CCCCCCCCCCCCCCCCC(=O)*; γGlu = O=C(O)[C@H](CCC(=O)[*:2])N[*:1]; AEEA = NCCOCCOCC(=O)O; Aib = CC(C)(N)C(=O)O
# B1: Compound 259 (peptide)
# peptide: YXEGTFTSDYSIXLEKQAQXAFVEWLIKGGPSSGASLRHYYNWLTRQRY
# modifications: Aib at 2, 13, 20; K28 side chain acylated with C18DA-gGlu-gGlu-gGlu-gGlu-gGlu-gGlu-eLys; C-terminal amide (NH2)
# B2: Compound 260 (peptide)
# peptide: B1 peptide
# modifications: Aib at 2, 13, 20; K28 side chain acylated with C18DA-gGlu-gGlu-gGlu-gGlu-gGlu-AHX; C-terminal amide (NH2)
# B3: Compound 265 (peptide)
# peptide: B1 peptide with E24Q, S33E
# modifications: Aib at 2, 13, 20; K28 side chain acylated with C18DA-gGlu-gGlu-gGlu-gGlu-gGlu-gGlu-eLys; C-terminal amide (NH2)
# B4: Compound 277 (peptide)
# peptide: B1 peptide with S33E, Q47X
# modifications: Aib at 2, 13, 20; bHGln (beta-homo-L-glutamine) at 47; K28 side chain acylated with C20DA-gGlu-gGlu-gGlu-gGlu-gGlu-gGlu-eLys; C-terminal amide (NH2)
# B5: Compound 275 (peptide)
# peptide: B1 peptide with A21E, S33E
# modifications: Aib at 2, 13, 20; K28 side chain acylated with C20DA-gGlu-gGlu-gGlu-gGlu-gGlu-gGlu-eLys; C-terminal amide (NH2)
# B6: Compound 261 (peptide)
# peptide: B1 peptide
# modifications: Aib at 2, 13, 20; K28 side chain acylated with C18DA-gGlu-gGlu-gGlu-gGlu-gGlu-OEG-OEG; C-terminal amide (NH2)
# Biological target: human GLP-1 receptor (human, UniProt P43220 24-463)
# Test: cell-based or functional assay
Binder,EC50 hGLP1R 0.5% hP (CreLuc) [nM],EC50 hGLP1R 100% hP (CreLuc) [nM]
Y[Aib]EGTFTSDYSI[Aib]LEKQAQ[Aib]EFVEWLIK([AEEA-AEEA-γGlu-γGlu-γGlu-C20 diacid])GGPSEGASLRHYYNWLTRQRY-NH2 (also: TFA salt) [Compound 273],0.75,19.2
Y[Aib]EGTFTSDYSI[Aib]LEKQAQ[Aib]AFVQWLIK([AEEA-AEEA-γGlu-γGlu-γGlu-γGlu-C20 diacid])GGPSEGASLRHYYNWLTRQRY-NH2 (also: TFA salt) [Compound 269],0.14,3.86
B1,0.09,2.55
B2,0.13,2.78
B3,0.1,2.13
B4,0.19,1.29
B5,0.5,21.7
B6,0.15,3.91
Y[Aib]EGTFTSDYSI[Aib]LEKQAQ[Aib]EFVEWLIK([γGlu-γGlu-γGlu-γGlu-C20 diacid])GGPSEGASLRHYYNWLTRQRY-NH2 (also: TFA salt) [Compound 271],0.53,21.4
Y[Aib]EGTFTSDYSI[Aib]LEKQAQ[Aib]EFVEWLIK([γGlu-γGlu-γGlu-γGlu-C18 diacid])GGPSEGASLRHYYNWLTRQRY-NH2 (also: TFA salt) [Compound 276],0.35,16.7

# Biological target: T1, human neuropeptide Y2 receptor (human, UniProt P49146 1-381)
# T1 sequence (looked up): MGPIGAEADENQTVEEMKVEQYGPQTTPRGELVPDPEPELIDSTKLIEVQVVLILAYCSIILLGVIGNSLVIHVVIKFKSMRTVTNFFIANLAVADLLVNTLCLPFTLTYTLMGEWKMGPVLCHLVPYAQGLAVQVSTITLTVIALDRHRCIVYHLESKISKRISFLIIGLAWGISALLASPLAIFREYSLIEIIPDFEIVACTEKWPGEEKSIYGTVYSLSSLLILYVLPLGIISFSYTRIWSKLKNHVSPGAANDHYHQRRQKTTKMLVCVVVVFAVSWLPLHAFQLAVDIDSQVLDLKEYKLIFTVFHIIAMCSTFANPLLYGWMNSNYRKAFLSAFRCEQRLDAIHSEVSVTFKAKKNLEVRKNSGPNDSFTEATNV
# Test: cell-based or functional assay
Binder,EC50 hNPY2R 0.5% hP (CreLuc) [nM],EC50 hNPY2R 100% hP (CreLuc) [nM]
Y[Aib]EGTFTSDYSI[Aib]LEKQAQ[Aib]EFVEWLIK([AEEA-AEEA-γGlu-γGlu-γGlu-C20 diacid])GGPSEGASLRHYYNWLTRQRY-NH2 (also: TFA salt) [Compound 273],19.3,76.3
Y[Aib]EGTFTSDYSI[Aib]LEKQAQ[Aib]AFVQWLIK([AEEA-AEEA-γGlu-γGlu-γGlu-γGlu-C20 diacid])GGPSEGASLRHYYNWLTRQRY-NH2 (also: TFA salt) [Compound 269],9.56,32.5
B1,10.7,29.3
B2,26.4,69.6
B3,8.83,23
B4,> 99.9,1120
B5,19.9,60
B6,24.1,64
Y[Aib]EGTFTSDYSI[Aib]LEKQAQ[Aib]EFVEWLIK([γGlu-γGlu-γGlu-γGlu-C20 diacid])GGPSEGASLRHYYNWLTRQRY-NH2 (also: TFA salt) [Compound 271],16.1,80
Y[Aib]EGTFTSDYSI[Aib]LEKQAQ[Aib]EFVEWLIK([γGlu-γGlu-γGlu-γGlu-C18 diacid])GGPSEGASLRHYYNWLTRQRY-NH2 (also: TFA salt) [Compound 276],20.7,73.7

# Biological target: T2, human GIP receptor (human, UniProt P48546 22-466)
# T2 sequence (looked up): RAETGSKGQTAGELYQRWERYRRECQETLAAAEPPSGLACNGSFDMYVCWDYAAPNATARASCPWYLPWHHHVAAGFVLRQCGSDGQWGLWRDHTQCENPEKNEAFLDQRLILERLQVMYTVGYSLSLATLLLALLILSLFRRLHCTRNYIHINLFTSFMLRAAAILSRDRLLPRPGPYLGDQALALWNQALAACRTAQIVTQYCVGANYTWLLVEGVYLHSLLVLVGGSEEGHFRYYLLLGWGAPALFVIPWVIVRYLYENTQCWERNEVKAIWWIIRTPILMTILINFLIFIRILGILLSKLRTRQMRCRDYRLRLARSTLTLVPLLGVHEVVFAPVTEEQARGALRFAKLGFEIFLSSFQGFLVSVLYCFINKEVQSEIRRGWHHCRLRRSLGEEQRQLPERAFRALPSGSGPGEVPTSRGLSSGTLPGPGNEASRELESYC
# Test: cell-based or functional assay
Binder,EC50 hGIPR 0.5% hP (CreLuc) [nM],EC50 hGIPR 100% hP (CreLuc) [nM]
Y[Aib]EGTFTSDYSI[Aib]LEKQAQ[Aib]EFVEWLIK([AEEA-AEEA-γGlu-γGlu-γGlu-C20 diacid])GGPSEGASLRHYYNWLTRQRY-NH2 (also: TFA salt) [Compound 273],0.38,1.52
Y[Aib]EGTFTSDYSI[Aib]LEKQAQ[Aib]AFVQWLIK([AEEA-AEEA-γGlu-γGlu-γGlu-γGlu-C20 diacid])GGPSEGASLRHYYNWLTRQRY-NH2 (also: TFA salt) [Compound 269],0.46,1.23
B1,0.22,0.91
B2,0.31,2.53
B3,0.39,0.79
B4,0.11,0.68
B5,0.27,1.75
B6,0.18,1.15
Y[Aib]EGTFTSDYSI[Aib]LEKQAQ[Aib]EFVEWLIK([γGlu-γGlu-γGlu-γGlu-C20 diacid])GGPSEGASLRHYYNWLTRQRY-NH2 (also: TFA salt) [Compound 271],0.62,2.62
Y[Aib]EGTFTSDYSI[Aib]LEKQAQ[Aib]EFVEWLIK([γGlu-γGlu-γGlu-γGlu-C18 diacid])GGPSEGASLRHYYNWLTRQRY-NH2 (also: TFA salt) [Compound 276],0.37,1.82
